Test system: Escherichia coli TOP10
Assay: shrunken log2 fold change of peptide-encoding DNA abundance (4.5 h post-induction vs induction); higher = less antimicrobial activity (less host growth inhibition)
Details: time post-induction: 4.5 h; library: site-saturation at positions 5, 18, 19, 20
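Further: peptides expressed intracellularly from a pBAD plasmid library in pooled LB shake-flask culture, induced with 0.3% L-arabinose, DNA abundance read by NGS, three biological replicates, DESeq2 with apeglm shrinkage.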

Sequence	shrunken log2 fold change
RRIRCRPPRLPRPRPRPGTRPRP	0.139
RRIRTRPPRLPRPRPRPPMDPRP	0.15
RRIRFRPPRLPRPRPRPSWVPRP	-0.393
RRIRCRPPRLPRPRPRPNYEPRP	-0.442
RRIRVRPPRLPRPRPRPVCEPRP	0.206
RRIRWRPPRLPRPRPRPQDCPRP	-0.014
RRIRARPPRLPRPRPRPYPKPRP	-0.149
RRIRVRPPRLPRPRPRPHETPRP	-0.0244
RRIRQRPPRLPRPRPRPWEAPRP	-0.00204
RRIRKRPPRLPRPRPRPLMYPRP	-0.0706
RRIRVRPPRLPRPRPRPHFTPRP	-0.253
RRIRYRPPRLPRPRPRPVANPRP	-0.0575
RRIRQRPPRLPRPRPRPNWNPRP	-0.206
RRIRFRPPRLPRPRPRPPQPPRP	0.795
RRIRDRPPRLPRPRPRPHDMPRP	-0.0819
RRIRARPPRLPRPRPRPRHDPRP	0.128
RRIRVRPPRLPRPRPRPTYVPRP	0.00864
RRIRRRPPRLPRPRPRPFDMPRP	-0.0228
RRIRHRPPRLPRPRPRPATYPRP	-0.501
RRIRSRPPRLPRPRPRPWYYPRP	-0.518
RRIRVRPPRLPRPRPRPNFVPRP	-0.491

Sequence	shrunken log2 fold change
RRIRTRPPRLPRPRPRPMCEPRP	0.0422
RRIRSRPPRLPRPRPRPRCQPRP	0.0737
RRIRDRPPRLPRPRPRPHTNPRP	-0.367
RRIRIRPPRLPRPRPRPFVAPRP	-0.158
RRIRCRPPRLPRPRPRPWYHPRP	-0.392
RRIRTRPPRLPRPRPRPFGPPRP	0.204
RRIRERPPRLPRPRPRPIDHPRP	-0.379
RRIRVRPPRLPRPRPRPANPPRP	-0.21
RRIRHRPPRLPRPRPRPMPMPRP	0.0326
RRIRRRPPRLPRPRPRPNILPRP	-0.0406
RRIRSRPPRLPRPRPRPTENPRP	0.148
RRIRCRPPRLPRPRPRPWRRPRP	0.0523
RRIRKRPPRLPRPRPRPHNPPRP	-0.0541
RRIRVRPPRLPRPRPRPFAVPRP	-0.00738
RRIRWRPPRLPRPRPRPNETPRP	0.0101
RRIRPRPPRLPRPRPRPSPKPRP	0.218
RRIRQRPPRLPRPRPRPRCKPRP	0.268
RRIRCRPPRLPRPRPRPLIFPRP	-0.514
RRIRDRPPRLPRPRPRPMVAPRP	0.00167
RRIRWRPPRLPRPRPRPYNVPRP	-0.758
RRIRWRPPRLPRPRPRPKNSPRP	0.318

Sequence	shrunken log2 fold change
RRIRPRPPRLPRPRPRPPSSPRP	-0.207
RRIRARPPRLPRPRPRPNVVPRP	-0.0083
RRIRKRPPRLPRPRPRPKFIPRP	-1.04
RRIRFRPPRLPRPRPRPHAIPRP	0.00598
RRIRARPPRLPRPRPRPPWWPRP	1.03
RRIRHRPPRLPRPRPRPEHRPRP	-0.137
RRIRHRPPRLPRPRPRPQMQPRP	-0.0236
RRIRCRPPRLPRPRPRPQVEPRP	0.0599
RRIRSRPPRLPRPRPRPFVAPRP	-0.0664
RRIRLRPPRLPRPRPRPAYVPRP	-0.177
RRIRRRPPRLPRPRPRPVWWPRP	0.703
RRIRARPPRLPRPRPRPQYHPRP	-0.398
RRIRNRPPRLPRPRPRPRQEPRP	0.00772
RRIRERPPRLPRPRPRPQKAPRP	-0.0836
RRIRARPPRLPRPRPRPCSRPRP	0.21
RRIRDRPPRLPRPRPRPMNEPRP	0.202
RRIRTRPPRLPRPRPRPQTAPRP	-0.0946
RRIRNRPPRLPRPRPRPNGVPRP	-0.0397
RRIRIRPPRLPRPRPRPLGHPRP	-0.425
RRIRNRPPRLPRPRPRPYFKPRP	-0.363
RRIRWRPPRLPRPRPRPFGVPRP	0.227

Sequence	shrunken log2 fold change
RRIRTRPPRLPRPRPRPKMEPRP	-0.0203
RRIRRRPPRLPRPRPRPWCCPRP	-0.0571
RRIRKRPPRLPRPRPRPEMLPRP	2
RRIRLRPPRLPRPRPRPKCEPRP	0.0288
RRIRQRPPRLPRPRPRPNENPRP	-0.0578
RRIRDRPPRLPRPRPRPDEQPRP	0.0528
RRIRVRPPRLPRPRPRPKGWPRP	0.684
RRIRRRPPRLPRPRPRPCYVPRP	-0.583
RRIRARPPRLPRPRPRPFNDPRP	-0.147
RRIRYRPPRLPRPRPRPIRLPRP	0.0224
RRIRPRPPRLPRPRPRPDEMPRP	0.377
RRIRYRPPRLPRPRPRPGGKPRP	0.0336
RRIRARPPRLPRPRPRPFPFPRP	-0.112
RRIRHRPPRLPRPRPRPYCPPRP	-0.0225
RRIRPRPPRLPRPRPRPFSAPRP	0.0672
RRIRLRPPRLPRPRPRPSTEPRP	0.0451
RRIRHRPPRLPRPRPRPEGDPRP	0.383
RRIRRRPPRLPRPRPRPRNIPRP	-0.0349
RRIRLRPPRLPRPRPRPQQYPRP	-0.277
RRIRGRPPRLPRPRPRPCANPRP	0.0504
RRIRYRPPRLPRPRPRPHVLPRP	-0.0311

Source: the supplement of paper PMC9112550, “Optimization of the antimicrobial peptide Bac7 by deep mutational scanning” (BMC Biology, 2022)
